Substitutions are numbered along the chain they refer to. In names and notes the source's numbering stands.
B1: HA-CCT2 (chaperonin subunit CCT2, wild type, N-terminal HA tag) (other)
chain: ASLSLAPVNIFKAGADEERAETARLTSFIGAIAIGDLVKSTLGPKGMDKILLSSGRDASLMVTNDGATILKNIGVDNPAAKVLVDMSRVQDDEVGDGTTSVTVLAAELLREAESLIAKKIHPQTIIAGWREATKAAREALLSSAVDHGSDEVKFRQDLMNIAGTTLSSKLLTHHKDHFTKLAVEAVLRLKGSGNLEAIHIIKKLGGSLADSYLDEGFLLDKKIGVNQPKRIENAKILIANTGMDTDKIKIFGSRVRVDSTAKVAEIEHAEKEKMKEKVERILKHGINCFINRQLIYNYPEQLFGAAGVMAIEHADFAGVERLALVTGGEIASTFDHPELVKLGSCKLIEEVMIGEDKLIHFSGVALGEACTIVLRGATQQILDEAERSLHDALCVLAQTVKDSRTVYGGGCSEMLMAHAVTQLANRTPGKEAVAMESYAKALRMLPTIIADNAGYDSADLVAQLRAAHSEGNTTAGLDMREGTIGDMAILGITESFQVKRQVLLSAAEAAEVILRVDNIIKAAPRKRVPDHHPC
notes: Expressed in HEK293T or U2OS from pFUGW-HA-CCT2; CCT genes were amplified from HEK293T cDNA; also called WT CCT2; HA-CCT2 WT; not shown: N-terminal HA tag
B2: GST-HA-CCT2 with VLL and VIL mutated (purified) (other)
chain: B1 chain with V502A, L503A, L504A, V512A, I513A, L514A
notes: also called GST-CCT2s; CCT2 with mutation of VLL and VIL; not shown: N-terminal GST and HA tags
B3: T7-GABARAP (expressed in cells) (other, UniProt O95166 1-116, looked up)
chain: MKFVYKEEHPFEKRRSEGEKIRKKYPDRVPVIVEKAPKARIGDLDKKKYLVPSDLTVGQFYFLIRKRIHLRAEDALFFFVNNVIPPTSATMGQLYQEHHEEDFFLYIAYSDESVYG
notes: not shown: T7 tag
B4: HA-CCT2 mVIL (other)
chain: B1 chain with V512A, I513A, L514A
notes: also called CCT2 VIL mutated to alanine; not shown: N-terminal HA tag
B5: HA-CCT2 mVLL (other)
chain: B1 chain with V502A, L503A, L504A
notes: also called CCT2 VLL mutated to alanine; not shown: N-terminal HA tag
B6: GFP-FUS P525L (purified, after TEV digestion of MBP-TEV-GFP-FUS P525L) (other, UniProt P35637 1-526, looked up)
chain: MASNDYTQQATQSYGAYPTQPGQGYSQQSSQPYGQQSYSGYSQSTDTSGYGQSSYSSYGQSQNTGYGTQSTPQGYGSTGGYGSSQSSQSSYGQQSSYPGYGQQPAPSSTSGSYGSSSQSSSYGQPQSGSYSQQPSYGGQQQSYGQQQSYNPPQGYGQQNQYNSSSGGGGGGGGGGNYGQDQSSMSSGGGSGGGYGNQDQSGGGGSGGYGQQDRGGRGRGGSGGGGGGGGGGYNRSSGGYEPRGRGGGRGGRGGMGGSDRGGFNKFGGPRDQGSRHDSEQDNSDNNTIFVQGLGENVTIESVADYFKQIGIIKTNKKTGQPMINLYTDRETGKLKGEATVSFDDPPSAKAAIDWFDGKEFSGNPIKVSFATRRADFNRGGGNGRGGRGRGGPMGRGGYGGGGSGGGGRGGFPSGGGGGGGQQRAGDWKCPNPTCENMNFSWRNECNQCKAPKPDGPGGGPGGSHMGGNYGDDRRGGRGGYDRGGYRGRGGDRGGFRGGRGGGDRGGFGPGKMDSRGEHRQDRRERLY
notes: 2 uM protein, as liquid granules (phase separation) or as solid aggregates (shaken at 700 rpm); also called FUS P525L granules; not shown: GFP
B7: CCT2 domain3 peptide 7 mVL(I)L (peptide)
peptide: ILGITESFQVKRQAAASAAEAAEAAARVDN
notes: Synthetic peptide coupled to agarose beads; VLL and VIL replaced by alanines; also called peptide 7 mutant (mVL (I) L)

What was measured:
T7-LC3B = T7-LC3B (UniProt Q9GZQ8 1-120); experiment: co-IP of HA-CCT2 with T7-ATG8s in HEK293T
Excerpt: The cells were permeabilized with digitonin before fixation. [0136] (G) Quantification of LC3 around Q103-HTT IB (mean±SEM) as shown in (F). […] [0137] […] The cells were permeabilized with digitonin before immunoblot analysis. LE, long exposure; SE, short exposure. [0138] (I) Quantification of normalized Q103-HTT (mean±SEM) in (H). […] [0139] […] The VLIR motif VIL is highlighted in red. [0140] […] The data are representative of three independent experiments. [0141] […] The cells were permeabilized with digitonin before fixation. [0142] (M) Quantification of LC3 around IBs (mean±SEM) as shown in (L). […] [0143] […] [0144] (O) Quantification of normalized Q103-HTT (mean±SEM) in (N).
Co-immunoprecipitation was performed essentially as described before. In brief, 24 h after transfection, the cells were collected and lysed on ice for 30 min in co-IP buffer (50 mM Tris/HCl pH 7.4, 150 mM NaCl, 1 mM EDTA, 0.5% NP40) with protease inhibitor mixture, and the lysates were cleared by centrifugation. The resulting supernatants were incubated with indicated agarose or magnetic beads and rotated at 4° C. for 3 h. The agarose was washed five times with co-IP buffer. As for the BFP-tagged Q103, the supernatants were incubated with rabbit anti-BFP antibodies and Protein A/G PLUS-Agarose according to the manufacturers' protocol. […]

[1] = molecular target: T1, His-T7-LC3C (purified protein) (UniProt Q9BXW4 1-147); experiment: in vitro pull-down of purified proteins, immunoblot
T1 construct: Purified on Ni sepharose; used in peptide and protein pull-downs; also called T7-LC3C protein; purified LC3C; not shown: His and T7 tags
T1 sequence (Q9BXW4 whole entry): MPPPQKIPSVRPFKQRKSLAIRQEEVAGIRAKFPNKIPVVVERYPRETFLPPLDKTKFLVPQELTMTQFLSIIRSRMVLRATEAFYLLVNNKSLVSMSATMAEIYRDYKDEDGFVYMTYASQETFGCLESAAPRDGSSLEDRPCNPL

[2] = molecular target: B1; experiment: co-IP of HA-CCT2 with T7-GABARAP in HEK293T
Protocol: (§1) The data are representative of three independent experiments. [0146] […] The data are representative of three independent experiments. [0147] […] The data are representative of three independent experiments. [0148] […] The interaction of the peptides with T7-GABARAP or T7-GABARAPL1 proteins was analyzed by in vitro pull-down. The data are representative of three independent experiments. [0149] […] The data are representative of three independent experiments. [0150] […] [0151] (K) Quantification of Q103-HTT-GFP area/DAPI area (mean±SEM) as shown in [0152] (J). 48 h represents IB accumulation stage and 72 h represents clearance stage. P values are indicated (two-tailed t test, >20 views from three independent experiments). [0153] […] The data are representative of three independent experiments. [0154] […] The data are representative of three independent experiments. [0155] […] The data are representative of three independent experiments.
(§2) Co-immunoprecipitation was performed essentially as described before. In brief, 24 h after transfection, the cells were collected and lysed on ice for 30 min in co-IP buffer (50 mM Tris/HCl pH 7.4, 150 mM NaCl, 1 mM EDTA, 0.5% NP40) with protease inhibitor mixture, and the lysates were cleared by centrifugation. The resulting supernatants were incubated with indicated agarose or magnetic beads and rotated at 4° C. for 3 h. The agarose was washed five times with co-IP buffer.

[3] = molecular target: T2, T7-LC3C (expressed in cells) (UniProt Q9BXW4 1-126); experiment: co-IP with T7-LC3C in HEK293T
T2 construct: Expressed from pCDNA3-T7-LC3C; not shown: T7 tag
T2 sequence (Q9BXW4 1-126): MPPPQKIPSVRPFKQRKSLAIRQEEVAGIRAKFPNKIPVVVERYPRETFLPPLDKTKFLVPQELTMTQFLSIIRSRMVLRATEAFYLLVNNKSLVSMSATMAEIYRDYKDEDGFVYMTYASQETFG
Protocol: as §1, §2

[4] = molecular target: T3, His-mRuby2-CCT2 (purified) (human, UniProt P78371 2-535); experiment: recruitment of 4 uM mRuby2-CCT2 to FUS P525L granules in vitro, imaging
T3 construct: 4 uM added to FUS P525L granules in vitro; also called CCT2 protein; not shown: His tag and mRuby2
T3 sequence: B1 chain
Excerpt: [0179] […] [0180] […] [0181] […] [0182] […] [0184] […] [0185] […] [0186]

[5] = molecular target: T1, His-T7-LC3C (purified protein); experiment: peptide pull-down, immunoblot
Excerpt: The data are representative of three independent experiments. […] The cells were permeabilized with digitonin before fixation. [0136] (G) Quantification of LC3 around Q103-HTT IB (mean±SEM) as shown in (F). […] [0137] […] The cells were permeabilized with digitonin before immunoblot analysis. LE, long exposure; SE, short exposure. [0138] (I) Quantification of normalized Q103-HTT (mean±SEM) in (H). […] [0139] […] The VLIR motif VIL is highlighted in red. [0140] […] The data are representative of three independent experiments. [0141] […] The cells were permeabilized with digitonin before fixation. [0142] (M) Quantification of LC3 around IBs (mean±SEM) as shown in (L). […] [0143] […] [0144] (O) Quantification of normalized Q103-HTT (mean±SEM) in (N).
After washing, 2×SDS loading buffer was added to the beads, and immunoblot was performed as described previously.

B1
binding result (T7-LC3B): binds

B2
binding result [1]: no binding

B3
binding result [2]: binds

B4
binding result [3]: no binding

B5
binding result [3]: no binding

B6
binding result [4]: binds

B7
binding result [5]: no binding
